{
  "source": "the supplement of paper PMC10567573",
  "parents": {"B1": {"name": "ACSBG2 (parent)", "chain": "FAQADALKGTLVSTLKEVKPTVFI"}},
  "data": [
    {"variants_of": "B1", "assay": "protein stability index of a GFP-peptide fusion (GPS, HEK-293T) (PSI 1-6); higher = more stable", "details": "c terminus: a fixed tail appended", "values": [
      {"variant": "FAFADALKGTLVSTLKEVKPTVFI", "note": "[Q3F]", "protein stability index": 3.71},
      {"variant": "FAWADALKGTLVSTLKEVKPTVFI", "note": "[Q3W]", "protein stability index": 2.13},
      {"variant": "FACADALKGTLVSTLKEVKPTVFI", "note": "[Q3C]", "protein stability index": 1.4},
      {"variant": "FALADALKGTLVSTLKEVKPTVFI", "note": "[Q3L]", "protein stability index": 2.44},
      {"variant": "FAGADALKGTLVSTLKEVKPTVFI", "note": "[Q3G]", "protein stability index": 3.16},
      {"variant": "FADADALKGTLVSTLKEVKPTVFI", "note": "[Q3D]", "protein stability index": 1.36},
      {"variant": "FAQADALKGNLVSTLKEVKPTVFI", "note": "[T10N]", "protein stability index": 1.61},
      {"variant": "FAQADALKGILVSTLKEVKPTVFI", "note": "[T10I]", "protein stability index": 2.96},
      {"variant": "FAQADALKGPLVSTLKEVKPTVFI", "note": "[T10P]", "protein stability index": 1.14},
      {"variant": "FAQADALKGELVSTLKEVKPTVFI", "note": "[T10E]", "protein stability index": 1.65},
      {"variant": "FAQADALKGKLVSTLKEVKPTVFI", "note": "[T10K]", "protein stability index": 1.98},
      {"variant": "FAQADALKGALVSTLKEVKPTVFI", "note": "[T10A]", "protein stability index": 2.04},
      {"variant": "FAQADALKGDLVSTLKEVKPTVFI", "note": "[T10D]", "protein stability index": 2.07},
      {"variant": "FAQADALKGGLVSTLKEVKPTVFI", "note": "[T10G]", "protein stability index": 1.46},
      {"variant": "FAQADALKGFLVSTLKEVKPTVFI", "note": "[T10F]", "protein stability index": 2.23},
      {"variant": "FAQADALKGHLVSTLKEVKPTVFI", "note": "[T10H]", "protein stability index": 2.91},
      {"variant": "FAQADALKGRLVSTLKEVKPTVFI", "note": "[T10R]", "protein stability index": 2.62},
      {"variant": "FAQADALKGYLVSTLKEVKPTVFI", "note": "[T10Y]", "protein stability index": 3.48},
      {"variant": "FAQADALKGMLVSTLKEVKPTVFI", "note": "[T10M]", "protein stability index": 2.76},
      {"variant": "FAQADALKGCLVSTLKEVKPTVFI", "note": "[T10C]", "protein stability index": 1.81},
      {"variant": "FAQADALKGWLVSTLKEVKPTVFI", "note": "[T10W]", "protein stability index": 2.36},
      {"variant": "FAQADALKGVLVSTLKEVKPTVFI", "note": "[T10V]", "protein stability index": 2.24},
      {"variant": "FAQADALKGQLVSTLKEVKPTVFI", "note": "[T10Q]", "protein stability index": 1.79},
      {"variant": "FAQADALKGSLVSTLKEVKPTVFI", "note": "[T10S]", "protein stability index": 1.55},
      {"variant": "MAQADALKGTLVSTLKEVKPTVFI", "note": "[F1M]", "protein stability index": 2.14},
      {"variant": "LAQADALKGTLVSTLKEVKPTVFI", "note": "[F1L]", "protein stability index": 2},
      {"variant": "EAQADALKGTLVSTLKEVKPTVFI", "note": "[F1E]", "protein stability index": 3.21},
      {"variant": "AAQADALKGTLVSTLKEVKPTVFI", "note": "[F1A]", "protein stability index": 2.26},
      {"variant": "RAQADALKGTLVSTLKEVKPTVFI", "note": "[F1R]", "protein stability index": 1.83},
      {"variant": "GAQADALKGTLVSTLKEVKPTVFI", "note": "[F1G]", "protein stability index": 2.46},
      {"variant": "DAQADALKGTLVSTLKEVKPTVFI", "note": "[F1D]", "protein stability index": 2.43},
      {"variant": "CAQADALKGTLVSTLKEVKPTVFI", "note": "[F1C]", "protein stability index": 1.3},
      {"variant": "VAQADALKGTLVSTLKEVKPTVFI", "note": "[F1V]", "protein stability index": 1.54},
      {"variant": "PAQADALKGTLVSTLKEVKPTVFI", "note": "[F1P]", "protein stability index": 2.31},
      {"variant": "IAQADALKGTLVSTLKEVKPTVFI", "note": "[F1I]", "protein stability index": 2.25},
      {"variant": "WAQADALKGTLVSTLKEVKPTVFI", "note": "[F1W]", "protein stability index": 1.46},
      {"variant": "SAQADALKGTLVSTLKEVKPTVFI", "note": "[F1S]", "protein stability index": 2},
      {"variant": "QAQADALKGTLVSTLKEVKPTVFI", "note": "[F1Q]", "protein stability index": 3.73},
      {"variant": "NAQADALKGTLVSTLKEVKPTVFI", "note": "[F1N]", "protein stability index": 2.59},
      {"variant": "TAQADALKGTLVSTLKEVKPTVFI", "note": "[F1T]", "protein stability index": 2.33},
      {"variant": "YAQADALKGTLVSTLKEVKPTVFI", "note": "[F1Y]", "protein stability index": 1.96},
      {"variant": "HAQADALKGTLVSTLKEVKPTVFI", "note": "[F1H]", "protein stability index": 1.98},
      {"variant": "KAQADALKGTLVSTLKEVKPTVFI", "note": "[F1K]", "protein stability index": 2.25},
      {"variant": "FAQADAKKGTLVSTLKEVKPTVFI", "note": "[L7K]", "protein stability index": 2.37},
      {"variant": "FAQADAQKGTLVSTLKEVKPTVFI", "note": "[L7Q]", "protein stability index": 2.11},
      {"variant": "FAQADANKGTLVSTLKEVKPTVFI", "note": "[L7N]", "protein stability index": 1.73},
      {"variant": "FAQADAPKGTLVSTLKEVKPTVFI", "note": "[L7P]", "protein stability index": 2.05},
      {"variant": "FAQADAEKGTLVSTLKEVKPTVFI", "note": "[L7E]", "protein stability index": 2.5},
      {"variant": "FAQADAMKGTLVSTLKEVKPTVFI", "note": "[L7M]", "protein stability index": 2.73},
      {"variant": "FAQADACKGTLVSTLKEVKPTVFI", "note": "[L7C]", "protein stability index": 1.52},
      {"variant": "FAQADAHKGTLVSTLKEVKPTVFI", "note": "[L7H]", "protein stability index": 2.16},
      {"variant": "FAQADAVKGTLVSTLKEVKPTVFI", "note": "[L7V]", "protein stability index": 1.91},
      {"variant": "FAQADADKGTLVSTLKEVKPTVFI", "note": "[L7D]", "protein stability index": 2.12},
      {"variant": "FAQADAIKGTLVSTLKEVKPTVFI", "note": "[L7I]", "protein stability index": 1.86},
      {"variant": "FAQADATKGTLVSTLKEVKPTVFI", "note": "[L7T]", "protein stability index": 2.02},
      {"variant": "FAQADAAKGTLVSTLKEVKPTVFI", "note": "[L7A]", "protein stability index": 2.1},
      {"variant": "FAQADAGKGTLVSTLKEVKPTVFI", "note": "[L7G]", "protein stability index": 1.3},
      {"variant": "FAQADAFKGTLVSTLKEVKPTVFI", "note": "[L7F]", "protein stability index": 3.08},
      {"variant": "FAQADARKGTLVSTLKEVKPTVFI", "note": "[L7R]", "protein stability index": 2.07},
      {"variant": "FAQADASKGTLVSTLKEVKPTVFI", "note": "[L7S]", "protein stability index": 1.67},
      {"variant": "FAQQDALKGTLVSTLKEVKPTVFI", "note": "[A4Q]", "protein stability index": 1.44},
      {"variant": "FAQSDALKGTLVSTLKEVKPTVFI", "note": "[A4S]", "protein stability index": 1.69},
      {"variant": "FAQRDALKGTLVSTLKEVKPTVFI", "note": "[A4R]", "protein stability index": 2.19},
      {"variant": "FAQKDALKGTLVSTLKEVKPTVFI", "note": "[A4K]", "protein stability index": 2.03},
      {"variant": "FAQTDALKGTLVSTLKEVKPTVFI", "note": "[A4T]", "protein stability index": 1.94},
      {"variant": "FAQCDALKGTLVSTLKEVKPTVFI", "note": "[A4C]", "protein stability index": 2.52},
      {"variant": "FAQNDALKGTLVSTLKEVKPTVFI", "note": "[A4N]", "protein stability index": 2.14},
      {"variant": "FAQPDALKGTLVSTLKEVKPTVFI", "note": "[A4P]", "protein stability index": 3.08},
      {"variant": "FAQGDALKGTLVSTLKEVKPTVFI", "note": "[A4G]", "protein stability index": 2.44},
      {"variant": "FAQEDALKGTLVSTLKEVKPTVFI", "note": "[A4E]", "protein stability index": 2.77},
      {"variant": "FAQMDALKGTLVSTLKEVKPTVFI", "note": "[A4M]", "protein stability index": 2.05},
      {"variant": "FAQVDALKGTLVSTLKEVKPTVFI", "note": "[A4V]", "protein stability index": 1.48},
      {"variant": "FAQLDALKGTLVSTLKEVKPTVFI", "note": "[A4L]", "protein stability index": 1.69},
      {"variant": "FAQIDALKGTLVSTLKEVKPTVFI", "note": "[A4I]", "protein stability index": 1.66},
      {"variant": "FAQHDALKGTLVSTLKEVKPTVFI", "note": "[A4H]", "protein stability index": 2.31},
      {"variant": "FAQFDALKGTLVSTLKEVKPTVFI", "note": "[A4F]", "protein stability index": 2.18},
      {"variant": "FAQDDALKGTLVSTLKEVKPTVFI", "note": "[A4D]", "protein stability index": 2.74},
      {"variant": "FAQYDALKGTLVSTLKEVKPTVFI", "note": "[A4Y]", "protein stability index": 1.52},
      {"variant": "FDQADALKGTLVSTLKEVKPTVFI", "note": "[A2D]", "protein stability index": 2.11},
      {"variant": "FHQADALKGTLVSTLKEVKPTVFI", "note": "[A2H]", "protein stability index": 2.08},
      {"variant": "FEQADALKGTLVSTLKEVKPTVFI", "note": "[A2E]", "protein stability index": 2.05},
      {"variant": "FFQADALKGTLVSTLKEVKPTVFI", "note": "[A2F]", "protein stability index": 2.79},
      {"variant": "FKQADALKGTLVSTLKEVKPTVFI", "note": "[A2K]", "protein stability index": 2.49},
      {"variant": "FCQADALKGTLVSTLKEVKPTVFI", "note": "[A2C]", "protein stability index": 1.85},
      {"variant": "FNQADALKGTLVSTLKEVKPTVFI", "note": "[A2N]", "protein stability index": 1.45},
      {"variant": "FLQADALKGTLVSTLKEVKPTVFI", "note": "[A2L]", "protein stability index": 2.46},
      {"variant": "FSQADALKGTLVSTLKEVKPTVFI", "note": "[A2S]", "protein stability index": 1.76},
      {"variant": "FGQADALKGTLVSTLKEVKPTVFI", "note": "[A2G]", "protein stability index": 2.13},
      {"variant": "FPQADALKGTLVSTLKEVKPTVFI", "note": "[A2P]", "protein stability index": 1.48},
      {"variant": "FQQADALKGTLVSTLKEVKPTVFI", "note": "[A2Q]", "protein stability index": 1.64},
      {"variant": "FTQADALKGTLVSTLKEVKPTVFI", "note": "[A2T]", "protein stability index": 1.56},
      {"variant": "FRQADALKGTLVSTLKEVKPTVFI", "note": "[A2R]", "protein stability index": 1.42},
      {"variant": "FIQADALKGTLVSTLKEVKPTVFI", "note": "[A2I]", "protein stability index": 1.22},
      {"variant": "FMQADALKGTLVSTLKEVKPTVFI", "note": "[A2M]", "protein stability index": 1.79}
    ]}
  ]
}
